Ends that are not written are not given here.
B1: P10 (designed binder)
peptide: SALEEQYKTFLDKFMHELEDLLYQLAL
notes: also called peptide P10; source: synthetic peptide (solid-phase synthesis on rink amide resin, HPLC purified)

Target: T1, Fc-tagged 2019-nCoV RBD-SD1 (SARS-CoV-2 (2019-nCoV), UniProt P0DTC2 319-591)
T1 construct: source: bought: Sanyou Biopharmaceuticals Co. Ltd
Experiment: BLI
Conditions: both partners purified

Row | Binder | Kd [nM]
1 | B1 | 0.03 ± 0.01
2 | SALEEQYKTFLDKFMHELEDLLYQLSL (designed binder, also called peptide P9) [P9] | 0.09 ± 0.08
3 | SALEEQLKTFLDKFMHELEDLLYQLAL-NH2 (designed binder, also called peptide P8) [P8] | 24 ± 11
